Assay results reported in patent US20220017612A1 (TILOS THERAPEUTICS, published 2022).

T1: fusion protein of a human IgG1 Fc domain and human LAP-TGFβ3 (human, UniProt P10600 24-412)
T1 construct: also called Fc-huB3; human LAP-TGFβ3-Fc
T1 sequence: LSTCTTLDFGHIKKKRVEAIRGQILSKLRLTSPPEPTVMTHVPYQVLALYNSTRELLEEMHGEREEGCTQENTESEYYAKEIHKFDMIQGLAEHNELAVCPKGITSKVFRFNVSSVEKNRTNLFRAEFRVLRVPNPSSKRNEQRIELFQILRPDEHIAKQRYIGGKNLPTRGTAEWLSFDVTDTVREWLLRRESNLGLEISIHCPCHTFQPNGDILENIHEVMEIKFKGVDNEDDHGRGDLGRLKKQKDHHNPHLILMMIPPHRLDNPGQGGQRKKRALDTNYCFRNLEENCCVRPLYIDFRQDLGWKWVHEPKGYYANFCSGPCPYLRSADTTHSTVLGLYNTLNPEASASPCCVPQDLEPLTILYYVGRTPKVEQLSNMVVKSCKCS

B1: 22F9_hIgG1 (antibody, V domains shown)
VH: QVQLQQPGAELVKPGASVKLSCKASGYTFTSYWMHWVKQRPGQGLEWIGMIHPNSGSTNYNEKFKSKATLTVDKSSSTAYMQLSSLTSEDSAVYYCAYYDYDGFFDVWGTGTTVTVSS
VL: DIVLTQSPASLDVSLGQRATISCRASKSVSTSGYSYMHWYQQKSGQPPKLLIYLASNLESGVPARFSGSGSGTHFTLNIHPVEEEDAATYYCQHSRELPYTFGGGTKLEIK
B2: 20E6_H0.2aL1_hIgG1 (antibody)
heavy: not shown
light: DIQMTQSPSSLSASVGDRVTITCRASQDITNYLNWYQQKPGKAVKLLIYYTSRLHSGVPSRFSGSGSGTDYTLTISSLQPEDFATYFCQQGDTLPWTFGQGTKLEIKRTVAAPSVFIFPPSDEQLKSGTASVVCLLNNFYPREAKVQWKVDNALQSGNSQESVTEQDSKDSTYSLSSTLTLSKADYEKHKVYACEVTHQGLSSPVTKSFNRGEC
notes: also called 20E6_H0.2aL1_IgG1; humanized 20E6

Columns and labels:
[1] = molecular target: T2, mature human TGFβ1 (free TGFβ1, without LAP) (human, UniProt P01137 279-390); assay: TGFβ1 ELISA after pre-incubation of 1000 pg mature TGFβ1 with antibody; loss of signal reflects binding
T2 construct: also called mature TGFβ; free human TGFβ1
Description: To determine whether anti-LAP antibodies 28G11_hIgG1, 22F9_hIgG1, 20E6_hIgG1, 17G8_hIgG1, and 24E3_hIgG1, bind to free human TGFβ1 (i.e., mature TGFβ1 that lacks LAP), the ability of the antibodies to inhibit an anti-TGFβ ELISA was evaluated. Briefly, mature TGFβ1 (1000 pg) was incubated with the indicated anti-LAP antibodies at 10 μg/mL, an isotype control antibody as a negative control or the commercially available anti-TGFβ antibody 1D11 as a positive control for 10 minutes on ice. For example, the 1D11 antibody is commercially available from any number of sellers, for example Bio x Cell Inc. (West Lebanon, N.H.). Supernatants were assayed in a TGFβ1 ELISA (R&D Systems) according to the manufacturer instructions to measure free TGFβ1. […] Note that Figure and FIG. are used interchangeably in this application.

[2] = molecular target: T3, human-chicken LAP-TGFβ1 chimera #2.2 on HT1080 cells (human/chicken chimera, UniProt P01137 30-390); assay: flow cytometry, HT1080 cells; grey bar = no anti-LAP antibody
T3 construct: also called HT1080-ch2.2
Description: (§1) This Example describes the binding of anti-LAP antibodies to LAP-TGFβ isoforms and LAP-TGFβ variants. In addition to antibodies 28G11_hIgG1, 22F9_hIgG1, and 20E6_hIgG1, anti-LAP antibodies 17G8_hIgG1, 24E3_hIgG1, and 2C9_(hyb) were also tested in this experiment. Briefly, 4×10⁵ each of (a) HT1080 cells, (b) HT1080 cells overexpressing human LAP-TGFβ1, (c) HT1080 cells overexpressing human LAP-TGFβ2, (d) HT1080 cells overexpressing human LAP-TGFβ3, (e) HT1080 cells overexpressing murine LAP-TGFβ1, (f) P3U1 cells, (g) P3U1 cells overexpressing LAP-TGFβ1 and GARP, and (h) P3U1 cells overexpressing LAP-TGFβ1 and LRRC33 were cultured in 96-well plates. The plates were centrifuged for 5 min at 1,500 rpm, liquid was removed, and cells were resuspended with 200 μL FACS buffer. The plates were centrifuged again, diluted primary antibody was added to each well, and the plates were incubated on ice for 20 minutes, followed by centrifugation. The cells were resuspended in 200 μL FACS buffer, centrifuged again, and resuspended in 50 μL diluted secondary antibody (Alexa647-anti-Human IgG or APC-anti-Mouse IgG). The plates were incubated on ice for 20 minutes in the dark, washed twice with 200 μL FACS buffer, and cells from each well (in 200 μL FACS buffer) were read on the Attune NXT instrument.
(§2) Cells were processed for flow cytometry in the same manner described above for the isoform-specific binding experiments.

[3] = molecular target: T4, human-chicken LAP-TGFβ1 chimera #2.3 on HT1080 cells (human/chicken chimera, UniProt P01137 30-390); assay: as above
T4 construct: also called HT1080-ch2.3
Description: as §1, §2

[4] = molecular target: T5, human LAP-TGFβ1 with K27C and Y75C mutations on HT1080 cells (human, UniProt P01137 30-390); assay: as above
T5 construct: also called closed conformation
Description: as §1, §2

[5] = molecular target: T6, human LAP-TGFβ1 with a Y74T mutation on HT1080 cells (human, UniProt P01137 30-390); assay: as above
T6 construct: also called HT1080-Y74T; open conformation
Description: as §1, §2

[6] = molecular target: T7, LAP-only variant of human TGFβ1 (empty LAP) on HT1080 cells (human, UniProt P01137 30-277); assay: as above
T7 construct: LAP without the mature cytokine; also called HT1080-emptyLAP; LAP-only construct
Description: as §1, §2

[7] = molecular target: T1, fusion protein of a human IgG1 Fc …; assay: bio-layer interferometry, biotinylated antibody on streptavidin tip, Fc-huB3 in solution
Description: The 20E6_H0.2aL1_IgG1 antibody was biotinylated using EZ-Link SulfoNHS-LC-Biotin (ThermoFisher). A streptavidin-functionalized tip was equilibrated in binding buffer (10 mM sodium phosphate, 150 mM sodium chloride, 1% (w/v) bovine serum albumin, 0.05% (w/v) sodium azide, pH 7.4) and dipped in a 10 μg/mL solution of biotinylated anti-LAP in binding buffer for 30 seconds to load the tip with antibody. The antibody-loaded tip was then washed in binding buffer and placed in a solution containing 0-24 nM of a fusion protein having a human IgG1 Fc domain fused to either human LAP-TGFβ1, human LAP-TGFβ2 or human LAP-TGFβ3. The antigen was allowed to bind to antibody for 5 minutes (association phase), and then the tip was moved to binding buffer (dissociation phase). The association and dissociation phases were fit to a 2:1 heterogenous ligand binding model to determine the binding rate constants. As shown in FIG. 21A and Table 17, 20E6_H0.2aL1_IgG1 bound with sub-nanomolar affinity to human LAP-TGFβ1, but not to human LAP-TGFβ2 (FIG. 21B) or LAP-TGFβ3 (FIG. 21C).

T4 sequence (P01137 other isoform, or with tags, fused parts or gaps mutant): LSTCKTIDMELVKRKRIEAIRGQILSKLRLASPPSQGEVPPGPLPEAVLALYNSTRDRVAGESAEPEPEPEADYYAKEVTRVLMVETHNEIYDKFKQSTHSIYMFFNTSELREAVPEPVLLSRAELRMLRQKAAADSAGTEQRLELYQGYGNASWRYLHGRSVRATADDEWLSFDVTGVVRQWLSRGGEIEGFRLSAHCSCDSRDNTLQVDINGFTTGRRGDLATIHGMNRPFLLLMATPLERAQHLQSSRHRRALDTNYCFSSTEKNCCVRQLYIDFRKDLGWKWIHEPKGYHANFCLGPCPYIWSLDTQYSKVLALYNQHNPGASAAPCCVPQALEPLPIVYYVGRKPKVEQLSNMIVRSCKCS
T6 sequence (P01137 other isoform, or with tags, fused parts or gaps Y74T Y74T): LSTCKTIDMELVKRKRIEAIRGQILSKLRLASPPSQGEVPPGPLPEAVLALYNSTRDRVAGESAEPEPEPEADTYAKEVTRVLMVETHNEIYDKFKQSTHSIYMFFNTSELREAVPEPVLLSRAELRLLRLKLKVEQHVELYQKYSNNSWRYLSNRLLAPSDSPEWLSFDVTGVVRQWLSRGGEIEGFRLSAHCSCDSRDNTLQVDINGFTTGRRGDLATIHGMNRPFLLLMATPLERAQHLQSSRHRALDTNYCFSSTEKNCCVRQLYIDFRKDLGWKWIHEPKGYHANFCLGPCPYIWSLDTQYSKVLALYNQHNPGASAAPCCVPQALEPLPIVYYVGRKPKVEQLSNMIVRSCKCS
T7 sequence (P01137 30-277, change not shown): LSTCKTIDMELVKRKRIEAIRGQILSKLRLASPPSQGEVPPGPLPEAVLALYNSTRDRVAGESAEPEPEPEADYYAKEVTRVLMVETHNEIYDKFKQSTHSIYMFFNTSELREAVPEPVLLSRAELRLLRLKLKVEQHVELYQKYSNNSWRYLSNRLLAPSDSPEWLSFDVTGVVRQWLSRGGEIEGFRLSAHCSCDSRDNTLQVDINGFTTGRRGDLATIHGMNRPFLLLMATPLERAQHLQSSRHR
T5 sequence (P01137 other isoform, or with tags, fused parts or gaps K27C Y75C K27C Y75C): as the sequence (P01137 other isoform, or with tags, fused parts or gaps Y74T Y74T) above, with K27C, T74Y, Y75C counted along it
T3 sequence (P01137 other isoform, or with tags, fused parts or gaps mutant): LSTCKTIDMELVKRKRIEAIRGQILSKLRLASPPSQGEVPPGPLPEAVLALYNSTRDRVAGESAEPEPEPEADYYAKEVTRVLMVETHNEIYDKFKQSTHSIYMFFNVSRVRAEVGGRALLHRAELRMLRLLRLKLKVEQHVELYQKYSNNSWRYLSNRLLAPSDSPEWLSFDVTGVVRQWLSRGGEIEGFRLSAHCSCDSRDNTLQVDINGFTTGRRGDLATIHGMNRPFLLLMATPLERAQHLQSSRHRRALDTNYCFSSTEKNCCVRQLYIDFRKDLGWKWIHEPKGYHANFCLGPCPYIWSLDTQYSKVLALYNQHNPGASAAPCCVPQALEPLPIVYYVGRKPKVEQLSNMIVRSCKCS
T2 sequence (P01137 279-390 limits assumed): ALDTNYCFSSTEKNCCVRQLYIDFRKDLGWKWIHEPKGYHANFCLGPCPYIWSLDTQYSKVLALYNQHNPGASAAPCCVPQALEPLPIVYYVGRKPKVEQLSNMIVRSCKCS

| Binder | binding result [1] | binding result [2] | binding result [3] | binding result [4] | binding result [5] | binding result [6] | binding result [7] |
| --- | --- | --- | --- | --- | --- | --- | --- |
| B1 | no binding (tested: 10 µg/mL) | no binding | binds | binds | no binding | no binding |  |
| B2 |  |  |  |  |  |  | no binding (tested: 24 nM) |
